# Experimental data from PMC9429925, “Tight Complex Formation of the Fumarate Sensing DcuS-DcuR Two-Component System at the Membrane and Target Promoter Search by Free DcuR Diffusion” (mSphere, 2022).
# T1: T25-DcuR (E. coli, UniProt P0AD01 1-239)
# T1 construct: response regulator DcuR of E. coli (REC and HTH domains); also called DcuR-fusion; source: bacterial two-hybrid (BACTH) fusion in E. coli BTH101; not shown: T25 domain of Bordetella pertussis adenylate cyclase, N-terminal, kept
# T1 sequence (looked up): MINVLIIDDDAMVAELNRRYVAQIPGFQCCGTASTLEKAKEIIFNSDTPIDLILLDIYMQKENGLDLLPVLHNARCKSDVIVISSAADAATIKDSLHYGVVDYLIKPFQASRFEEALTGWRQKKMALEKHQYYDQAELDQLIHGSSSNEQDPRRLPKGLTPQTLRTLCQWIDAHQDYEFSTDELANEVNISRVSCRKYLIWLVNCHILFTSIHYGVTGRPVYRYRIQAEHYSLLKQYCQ
# T2: T25-DcuR(D56N) (E. coli, UniProt P0AD01 1-239, D56N)
# T2 construct: E. coli DcuR, as pMW427 (T25-DcuR) with the phosphorylation site Asp56 changed to Asn; source: bacterial two-hybrid (BACTH) fusion in E. coli BTH101; not shown: T25 domain of Bordetella pertussis adenylate cyclase, N-terminal, kept
# T2 sequence (looked up): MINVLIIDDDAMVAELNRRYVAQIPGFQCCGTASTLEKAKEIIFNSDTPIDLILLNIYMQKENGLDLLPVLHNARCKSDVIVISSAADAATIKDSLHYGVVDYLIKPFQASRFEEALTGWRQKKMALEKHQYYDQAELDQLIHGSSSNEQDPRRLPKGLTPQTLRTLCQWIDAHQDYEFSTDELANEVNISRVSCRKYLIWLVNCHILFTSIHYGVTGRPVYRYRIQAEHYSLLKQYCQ
# T3: His6-DcuR (E. coli, UniProt P0AD01 1-239)
# T3 construct: response regulator DcuR of E. coli; unphosphorylated; also called DcuR-6His; source: E. coli BL21(DE3), purified (Ni-NTA agarose)
# T3 sequence (looked up): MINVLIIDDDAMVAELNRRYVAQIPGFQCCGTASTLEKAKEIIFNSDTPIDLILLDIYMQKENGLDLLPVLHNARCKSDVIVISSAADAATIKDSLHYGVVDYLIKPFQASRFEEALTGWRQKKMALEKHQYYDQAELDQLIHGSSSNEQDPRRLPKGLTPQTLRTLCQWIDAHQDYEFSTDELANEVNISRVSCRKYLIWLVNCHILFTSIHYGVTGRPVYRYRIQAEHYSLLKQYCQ
# B1: phosphorylated PASC-Kin (PASC-Kin-P) (domain or fragment, E. coli, UniProt P0AEC8 212-539, looked up)
# chain: LEPYEISTLFEQRQAMLQSIKEGVVAVDDRGEVTLINDAAQELLNYRKSQDDEKLSTLSHSWSQVVDVSEVLRDGTPRRDEEITIKDRLLLINTVPVRSNGVIIGAISTFRDKTEVRKLMQRLDGLVNYADALRERSHEFMNKLHVILGLLHLKSYKQLEDYILKTANNYQEEIGSLLGKIKSPVIAGFLISKINRATDLGHTLILNSESQLPDSGSEDQVATLITTLGNLIENALEALGPEPGGEISVTLHYRHGWLHCEVNDDGPGIAPDKIDHIFDKGVSTKGSERGVGLALVKQQVENLGGSIAVESEPGIFTQFFVQIPWDGE
# modifications: phosphorylated by autophosphorylation with ATP; phosphorylation site His349
# notes: cytoplasmic part of E. coli DcuS, residues 212-539, autophosphorylated with ATP; source: E. coli BL21(DE3), purified (Ni-NTA agarose), then incubated with 1 mM ATP; not shown: His6, N-terminal, kept
# B2: His6-PASc-Kin (DcuS [AS 212-539]) (domain or fragment, E. coli, UniProt P0AEC8 212-539, looked up)
# chain: LEPYEISTLFEQRQAMLQSIKEGVVAVDDRGEVTLINDAAQELLNYRKSQDDEKLSTLSHSWSQVVDVSEVLRDGTPRRDEEITIKDRLLLINTVPVRSNGVIIGAISTFRDKTEVRKLMQRLDGLVNYADALRERSHEFMNKLHVILGLLHLKSYKQLEDYILKTANNYQEEIGSLLGKIKSPVIAGFLISKINRATDLGHTLILNSESQLPDSGSEDQVATLITTLGNLIENALEALGPEPGGEISVTLHYRHGWLHCEVNDDGPGIAPDKIDHIFDKGVSTKGSERGVGLALVKQQVENLGGSIAVESEPGIFTQFFVQIPWDGE
# notes: cytoplasmic part of E. coli DcuS (Linker, PASC and kinase domains), residues 212-539; unphosphorylated; pET28a derivative; homodimer by SEC (Mr 84 kDa, monomer 40.4 kDa); also called His6-PASc-Kinase; 6His-PASc-Kinase; source: E. coli BL21(DE3), purified (Ni-NTA agarose); not shown: His6, N-terminal, kept
# Key:
# [1] = target: B2; test: MST; eYFP-L-DcuR at 0.1 μM, His6-PASC-Kin titrated from 10^-1 to 2 x 10^4 nM; Tris/HCl pH 7.7, 10 mM MgCl2, 2 mM DTT; 25°C; Monolith NT.115; 1:1 binding model; Kd refers to monomer concentrations; conditions: both partners purified
# [2] = target: B1; test: as above; conditions: both partners purified
# [3] = target: T1, T25-DcuR; test: two-hybrid; bacterial two-hybrid BACTH in E. coli BTH101 (ΔcyaA); T25 N-terminally on DcuR, T18 C-terminally on DcuS or PASC-Kin; β-galactosidase activity in Miller units; wild-type pair also with fumarate; conditions: partners not purified
# [4] = target: T2, T25-DcuR(D56N); test: as above; conditions: partners not purified
# [5] = target: the molecule itself; test: SEC; mixtures of PASC-Kin and DcuR (phosphate-free or phosphorylated), molar ratios 1:1.44, 1:2, 1:1.4 with PASC-Kin at 40.4 μM (also 1:0.2, 1:5, 1:10 for PASC-Kin-P and DcuR); HiLoad 16/600 Sephadex 200; peak fractions analysed by SDS-PAGE and quantified with ImageJ
# [6] = target: T3, His6-DcuR; test: as above; conditions: both partners purified
# [7] = target: the molecule itself; test: SEC; each protein alone on HiLoad 16/600 Sephadex 200; His6-PASc-Kinase 45 μM, DcuR 55 μM; 50 mM Tris-HCl, 1 mM DTT, 50 mM KCl, 5 mM MgCl2, pH 7.7, 25°C; Mr by calibration with protein standards
binder,measurement,setting,value
"eYFP-L-DcuR (natural protein, E. coli, UniProt P0AD01 1-239, looked up, response regulator DcuR of E. coli, joined genetically to eYFP by a short linker; unphosphorylated; The His6 tag is printed at the N-terminus and at the C-terminus in the same paragraph; also called eYfp-Linker-DcuR; His6-eYfp-Linker-DcuR; source: E. coli BL21(DE3), purified (Ni-NTA agarose)) MINVLIIDDDAMVAELNRRYVAQIPGFQCCGTASTLEKAKEIIFNSDTPIDLILLDIYMQKENGLDLLPVLHNARCKSDVIVISSAADAATIKDSLHYGVVDYLIKPFQASRFEEALTGWRQKKMALEKHQYYDQAELDQLIHGSSSNEQDPRRLPKGLTPQTLRTLCQWIDAHQDYEFSTDELANEVNISRVSCRKYLIWLVNCHILFTSIHYGVTGRPVYRYRIQAEHYSLLKQYCQ",Kd,[1],1380 nM
same,Kd,[2],22 nM
"eYFP-L-DcuR-P (natural protein, E. coli, UniProt P0AD01 1-239, looked up, phosphorylated with carbamoyl phosphate; phosphorylation site Asp56 of DcuR, response regulator DcuR of E. coli, joined genetically to eYFP by a short linker, phosphorylated with carbamoyl phosphate; also called eYFP-DcuR~P; source: E. coli BL21(DE3), purified (Ni-NTA agarose), then incubated with 50 mM carbamoyl phosphate) MINVLIIDDDAMVAELNRRYVAQIPGFQCCGTASTLEKAKEIIFNSDTPIDLILLDIYMQKENGLDLLPVLHNARCKSDVIVISSAADAATIKDSLHYGVVDYLIKPFQASRFEEALTGWRQKKMALEKHQYYDQAELDQLIHGSSSNEQDPRRLPKGLTPQTLRTLCQWIDAHQDYEFSTDELANEVNISRVSCRKYLIWLVNCHILFTSIHYGVTGRPVYRYRIQAEHYSLLKQYCQ",Kd,[1],28 nM
"PASC-Kin(H349A)-T18 (domain or fragment, E. coli, UniProt P0AEC8 211-539, looked up, cytoplasmic part of E. coli DcuS, as pMW1076 [DcuS(211-539)] with H349A; source: bacterial two-hybrid (BACTH) fusion in E. coli BTH101; not shown: T18 domain of Bordetella pertussis adenylate cyclase, C-terminal, kept) GLEPYEISTLFEQRQAMLQSIKEGVVAVDDRGEVTLINDAAQELLNYRKSQDDEKLSTLSHSWSQVVDVSEVLRDGTPRRDEEITIKDRLLLINTVPVRSNGVIIGAISTFRDKTEVRKLMQRLDGLVNYADALRERSAEFMNKLHVILGLLHLKSYKQLEDYILKTANNYQEEIGSLLGKIKSPVIAGFLISKINRATDLGHTLILNSESQLPDSGSEDQVATLITTLGNLIENALEALGPEPGGEISVTLHYRHGWLHCEVNDDGPGIAPDKIDHIFDKGVSTKGSERGVGLALVKQQVENLGGSIAVESEPGIFTQFFVQIPWDGE",% of wild-type BACTH activity,[3],108%
"DcuS-T18 (natural protein, E. coli, UniProt P0AEC8 1-543, looked up, membrane-integral C4-dicarboxylate sensor kinase DcuS of E. coli, full length; also called full-length DcuS; DcuS-fusion; source: bacterial two-hybrid (BACTH) fusion in E. coli BTH101; not shown: T18 domain of Bordetella pertussis adenylate cyclase, C-terminal, kept) MRHSLPYRMLRKRPMKLSTTVILMVSAVLFSVLLVVHLIYFSQISDMTRDGLANKALAVARTLADSPEIRQGLQKKPQESGIQAIAEAVRKRNDLLFIVVTDMQSLRYSHPEAQRIGQPFKGDDILKALNGEENVAINRGFLAQALRVFTPIYDENHKQIGVVAIGLELSRVTQQINDSRWSIIWSVLFGMLVGLIGTCILVKVLKKILFGLEPYEISTLFEQRQAMLQSIKEGVVAVDDRGEVTLINDAAQELLNYRKSQDDEKLSTLSHSWSQVVDVSEVLRDGTPRRDEEITIKDRLLLINTVPVRSNGVIIGAISTFRDKTEVRKLMQRLDGLVNYADALRERSHEFMNKLHVILGLLHLKSYKQLEDYILKTANNYQEEIGSLLGKIKSPVIAGFLISKINRATDLGHTLILNSESQLPDSGSEDQVATLITTLGNLIENALEALGPEPGGEISVTLHYRHGWLHCEVNDDGPGIAPDKIDHIFDKGVSTKGSERGVGLALVKQQVENLGGSIAVESEPGIFTQFFVQIPWDGERSNR",% of wild-type BACTH activity,[4],94%
"DcuS(H349A)-T18 (natural protein, E. coli, UniProt P0AEC8 1-543, looked up, E. coli DcuS, as pMW428 (full-length DcuS-T18) with the phosphorylation site His349 changed to Ala; source: bacterial two-hybrid (BACTH) fusion in E. coli BTH101; not shown: T18 domain of Bordetella pertussis adenylate cyclase, C-terminal, kept) MRHSLPYRMLRKRPMKLSTTVILMVSAVLFSVLLVVHLIYFSQISDMTRDGLANKALAVARTLADSPEIRQGLQKKPQESGIQAIAEAVRKRNDLLFIVVTDMQSLRYSHPEAQRIGQPFKGDDILKALNGEENVAINRGFLAQALRVFTPIYDENHKQIGVVAIGLELSRVTQQINDSRWSIIWSVLFGMLVGLIGTCILVKVLKKILFGLEPYEISTLFEQRQAMLQSIKEGVVAVDDRGEVTLINDAAQELLNYRKSQDDEKLSTLSHSWSQVVDVSEVLRDGTPRRDEEITIKDRLLLINTVPVRSNGVIIGAISTFRDKTEVRKLMQRLDGLVNYADALRERSAEFMNKLHVILGLLHLKSYKQLEDYILKTANNYQEEIGSLLGKIKSPVIAGFLISKINRATDLGHTLILNSESQLPDSGSEDQVATLITTLGNLIENALEALGPEPGGEISVTLHYRHGWLHCEVNDDGPGIAPDKIDHIFDKGVSTKGSERGVGLALVKQQVENLGGSIAVESEPGIFTQFFVQIPWDGERSNR",% of wild-type BACTH activity,[3],94%
B1,binding result,[5],binds
same,stoichiometry N,[6],0.86 mol DcuR/mol PASC-Kin
B2,stoichiometry N,[7],2
